In patent publication US20060116325A1, “Methods and compositions for inhibiting hiv-coreceptor interactions” (priority 2001, published 2006):
“Also recorded” adds a separate entry of the source.

Assays:
[1] = target: T1, CXCR4 (Homo sapiens, UniProt P61073); test: Competition with 125I-SDF-1α binding to CEMx174 cells; design: host or cells: CEMx174 (174xCEM); details: room temperature, 0.1% sodium azide, FIG. 7B, 7C
Method: FIGS. 7A through 7C depicts the inhibition of chemokine receptor ligand binding by peptide pre-treatment. FIG. 7A. Effect of pre-treatment with peptides 15K and 15D on the binding of MIP-1β to SupT1/CCR5 cells; FIG. 7B. Effect of pre-treatment with peptides 15K and 1SD on the binding of SDF-1α to CEMx174 cells; and FIG. 7C. Effect of pre-treatment with 15K and control peptide 15GIG on the binding of SDF-1α to CEmx174 cells. Binding studies were performed as described in Materials and Methods.
Binding assays were performed with HEK-CCR5 or HEK CXCR4 in triplicate by adding unlabeled competitor (anti-coreceptor binding peptide or control chemokine) and radiolabeled chemokine, 0.2 ng/ml (^125I-MIP-1β or SDF-1α, specific activity 2000 Ci/mmol, NEN Life Science Products) to a cell suspension (4×10^5 cells in 200 μl) in RPMI 1640 supplemented with 1% bovine serum albumin and 25 mM HEPES pH 8.0 (binding medium). Cells were then incubated at 22° C. for 40 min with continuous rotation. After incubation cells were transferred to the tubes containing 800 μl of 10% sucrose in PBS and harvested by centrifugation. The supernatant was aspirated and the cell-associated radioactivity was measured using a 1272 Wallac gamma counter. Binding assays were performed with the 174xCEM and Sup-T1 cells expressing CCR5 in duplicates by adding unlabeled competitor (peptide or control chemokine) and radiolabeled chemokine, 0.2 ng/ml (^125I-MIP-1β or ^125I-SDF-1α, specific activity 2000 Ci/mmol, NEN life Science Products) to 300 μl cell suspension (4×10^6 cells/ml) in RPMI 1640 supplemented with 1% bovine serum albumin, 0.1% sodium azide and 25 mM HEPES pH 8.0 (binding medium). Cells were then incubated at 22° C. for 30 min with continuous rotation. After incubation cells were transferred to the tubes containing 800 μl of 10% sucrose in PBS and harvested by centrifugation, the supematant was aspirated and the cell-associated radioactivity was measured using a 1272 Wallac gamma counter. The data were analyzed by nonlinear regression using the computer program GraphPad Prizm 3.0. […]

[2] = target: T1, CXCR4; test: Ca2+ mobilization in THP-1 cells in response to SDF-1α (fura-2); assay type: cell-based; details: peptide 500 μM preincubated, SDF-1α 100 ng/ml, FIG. 6
Method: FIGS. 6A through 6D depict the effect of peptide pre-treatment on the mobilization of intracellular Ca^2+ in THP-1 cells in response to SDF-1α. Cells loaded with fura-2 were preincubated with peptide 15K (FIG. 6C), 15D (FIG. 6B) and 15CW (FIG. 6D) at a final concentration of 500 μM for 3 min prior to stimulation with SDF-1α (100 ng/ml).
THP-1 cells (12×10^6/ml in RPMI 1640 containing 10% FSB) were loaded in the presence of 5 μM fura-2 AM (Molecular Probes, Eugene, Oreg.) at 22° C. for 30 min in the dark. Subsequently, cells were washed three times and resuspended (10^6 cells/ml) in the buffer containing 138 mM sodium chloride, 6 mM potassium chloride, 1 mM calcium chloride, 1 mM magnesium chloride, 10 mM HEPES, pH 7.4,5 mM glucose, and 0.1% bovine serum albumin. 1.93 ml of loaded cells was transferred into a quartz cuvette. 50 μl of a peptide stock solution (2×10^−2 M) was added to the cells, and after 3 min of incubation 20 μl of human SDF-1α (10 μg/ml, PeproTech) was added to a stirred cuvette. The measurements were performed using luminescence spectrophotometer LS50 B (Perkin-Elmer). Ca^2+ mobilization in the cells in response to SDF-1α was measured by analysis of the ratio of fluorescence emitted at 510 nm after sequential excitation at 340 and 380 nm.
The increase of intracellular Ca^2+ concentration mediated by a chemokine receptor in response to a cognate chemokine is a reliable assay for measurement of chemokine agonist activity. The human monocytic cell line THP-1 expresses a high level of CXCR4 and responds well to SDF-1α stimulation (FIG. 6A), so these cells were used to determine whether peptides 15D and 15K could block the activation of CXCR4.

[3] = test system: HIV-1IIIB; test: HIV-1IIIB infection of PBMC, p24 ELISA; assay type: cell-based; details: peptide 1 hr before HIV-1IIIB, p24 after 48 hr; FIG. 4
Method: Peripheral blood mononuclear cells were treated with designated concentrations of peptide for a period of 1 hr prior to addition of HIV-1IIIB. After 2 hr, cells were washed, and viral replication was determined after 48 hr by analysis of p24 levels. Results are representative of 4 independent experiments.
PBMCs were obtained from whole blood of normal donors and isolated by Ficoll-Paque Plus (Pharmacia Biotech, Piscataway, N.J.) density gradient centrifugation, and plated at a cell density of 2×10^6 cells/ml. Monocyte-derived macrophages (MDM) were generated from adherent human peripheral blood mononuclear cells by culture for 7 days with M-CSF (100 ng/ml). Cultures were maintained in RPMI-1640 medium (Life Technologies, Rockville, Md.) supplemented with 10% heat-inactivated endotoxin-free FCS (Hyclone, Logan, Utah), 10 μg/ml gentamicin, and 1 mM glutamine. Cells were treated with designated concentrations of the exemplary peptides 15K or 15D, and after 1 hr cells were infected with HIV-1IIIB (T cell tropic) or HIV-1JRFL (monocyte tropic) at an multiplicity of infection (MOI) of 0.1. After 2 hr, cells were washed, and cultured for additional 48-72 hr, followed by analysis of HIV replication as determined by quantification of accumulated p24 in the supernatant. The production of p24 was determined by conventional sandwich ELISA, using ELISA plates pre-coated with capture anti-p24 antibodies provided by the AIDS Vaccine Program (SAIC Frederick, NCI-FCRDC, Frederick, Md.). The captured p24 antigen was detected using rabbit anti-HIV-1 anti-p24 antibody, and a secondary goat anti-rabbit IgG (peroxidase-labeled) antibody. The captured p24 protein was detected using a 3,3′,5,5′-tetramethylbenzidine and hydrogen peroxide detection system (KPL Laboratories, Gaithersburg, Md.). The reaction was read spectrophotometrically at 450 nm. No cytotoxicity was detectable following treatment of PBMC with the peptides even at a concentration of 100 μg/ml.
In view of the foregoing binding inhibition studies, and considering the homology between the 15K and 15D peptides and the CXCR4 ligand SDF-1α, it was further undertaken to determine the capacity of the synthetic peptides to inhibit CXCR4 co-receptor function. In particular, experiments were carried out to assess the ability of 15K or 15D to alter the infection of PBMCs with the T cell-tropic […] strain. […] Significant inhibition of HIV-1 infection was detected with concentrations of peptides as low as 10 ng/ml.

[4] = target: T1, CXCR4; test: Binding of anti-CXCR4 antibody 12G5 to CEMx174 cells (flow cytometry); design: host or cells: CEMx174 (174xCEM); details: CEMx174 cells, preincubation 60 min 22° C.; FIG. 5
Method: FIG. 5A. Dose dependent effect of peptide 15K in comparison with SDF-1α. FIG. 5B. The comparison of the effects of 15K and 15D. FIG. 5C. The comparison of the effects of 15K and 15KS. Cells were preincubated at 22° C. with peptides at designated concentrations of SDF-1α for 60 min. Then cells were incubated with FITC-labeled anti-human CXCR4 monoclonal antibodies 12G5 for 40 min at 22° C. and washed with FACS buffer prior to flow cytometry.
CEMx174 cells were pelleted and resuspended at 10^6 cells/ml in PBS containing 1% BSA and 0.1% sodium azide (FACS buffer). Cells were then preincubated with designated concentrations of peptides or SDF-1-α (1 μg/ml) at 22° C. for 60 min. FITC-labeled anti-human CXCR4 antibody (clone 12G5, BD PharMingen, San Diego, Calif.) was added to the cells per the manufactures instructions and further incubated at 22° C. for 40 minutes. Cells were extensively washed with FACS buffer and analyzed using a FACS Calibur flowcytometer (Becton Dickinson). HEK/CCR5 cells were suspended in Dulbecco's PBS containing 1% FCS and 0.05% NaN3 (10^4 cells in 100 μl) and incubated with or without 5 μg of MIP-1β (PeproTech, Rocky Hill, N.J.), 0.1 mM peptide 15D or 15K for 45 min at 22° C. Cells were then treated with FITC-conjugated anti-human CCR5 antibody (2D7; BD PharMingen, San Diego, Calif.), and incubated for 30 min at 22° C. Cells were washed twice, and analyzed using a FACScan flow cytometer (Becton Dickinson Immunocytometry Systems, San Jose, Calif.).
To determine if peptides 15D and 15K interact directly with chemokine receptors the effect of these and control peptides on the binding of anti-chemokine receptor antibodies to CXCR4 and CCR5 was studied. The monoclonal antibody 12G5 recognizes a conformational extracellular epitope on CXCR4. This antibody blocks the infectivity of some X4 strains of HIV-1 and HIV-2 (Endres et al., Cell 87:745-756, 1996; Hoxie et al., J. Reprod. Immunol. 41:197-211(1998); McKnight et al., J. Virol. 74:1692-1696(1997), 19, 26). […] Further, the binding of 12G5 to CXCR4 receptor-expressing cells is prevented by anti-HIV compounds. […] 73:2752-2761, 1999. To determine the importance of the particular amino acid sequence of the inhibitory activity of the peptides. The effects of peptide 15K and the corresponding scrambled peptide 15KS on binding of 12G5 to CXCR4 was compared. […] Apparently there is a direct correlation between the ability of 15K to inhibit the anti-CXCR4 antibody binding and its ability to inhibit HIV-1 infectivity since the scrambled peptide 15KS with the same amino acid comparison has reduced ability to manifest both these activities.

T1 sequence (P61073 whole entry): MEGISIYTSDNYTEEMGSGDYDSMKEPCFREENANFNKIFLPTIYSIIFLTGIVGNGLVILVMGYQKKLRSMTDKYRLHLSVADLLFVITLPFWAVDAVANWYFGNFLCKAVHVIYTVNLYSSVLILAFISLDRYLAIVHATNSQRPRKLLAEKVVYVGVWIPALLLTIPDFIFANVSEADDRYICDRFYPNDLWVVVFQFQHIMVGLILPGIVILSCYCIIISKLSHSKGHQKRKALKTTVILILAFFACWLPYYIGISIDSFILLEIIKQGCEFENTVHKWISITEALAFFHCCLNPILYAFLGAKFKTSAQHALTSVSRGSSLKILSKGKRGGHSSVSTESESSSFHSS

G I G D P V T C L K S G A I A (GIGDPVTCLKSGAIA) [Peptide 15GIG, reference compound]
inhibition of SDF-1α binding to CXCR4 [1]: significantly lower competing activity

I R K A H C W I D R A D N N S [Peptide 15CW, reference compound]
inhibition of Ca2+ mobilization in response to SDF-1α [2]: less effective

K I N S W R A D N I H C K A R (KINSWRADNIHCKAR) [Peptide 15KS, reference compound]
inhibition of T cell-tropic HIV-1 infection of PBMCs (p24) [3]: significantly less inhibition
inhibition of 12G5 antibody binding to CXCR4 [4]: significantly less inhibitory activity; also recorded: a low level of inhibitory activity
